Laboratory results as given in the domain aggregation screens of Martell et al. (2025).

Test: soluble fraction after stress (log2 fold change); higher = more stays soluble; pooled small domains, quantitative proteomics
Conditions: stress: pH 4
Method in brief: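 How much of each domain stays soluble after acid stress, expressed as a fold change, is used to gauge aggregation propensity. Pooled custom libraries of small domains underwent pH 4 stress before high-throughput quantitative proteomics. A higher log2 value means more of the domain stayed soluble.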

| Sequence | soluble fraction (log2) |
| --- | --- |
| HMNENDENLRQQAIDASKEVRRWGEPVTLPPMNAHDRRIIHITLEGESDLQTESTGEGNFKSVVISLK | 0.0645 |
| HMTPGPFLVYITGAVERPNVLVTLDYGSRVIDALNAAGGSRIDANLDLVNLAQRLVDGDQIHVPTLR | -1.1 |
| HMRLLAESIARGLDPEGSGGLWAKEAGAEALKLMETLAAEAPHGGSFTAAAYRDLFESLVHQGEVREA | -0.335 |
| HMEFDTEFVLRQAMHAFMQYGYAKTSMQKLKEATHLHPGSIYAAYGNKKGLFLAATEQYQKDR | -0.101 |
| HMAGLELVVTREQAGRTVKSLLRGELGISTALMGRLKRTGTGLTVNGTRVFTNAVLREGDRLAVDLDAAE | -0.0613 |
| HMETKERDEQFLEMIRQNEGIIFKVASFYVDKEHPIGDLYQEVVLNLWKGYPSFRGESKYSTWIYRIALNT | -0.504 |
| HMENYTYKYATSANVNIREEPNTDSTILGKTLLNTEFQVVEDVDGWSKITTEAGYAYIKSEYLSDTE | -0.392 |
| HMYSQEEKRYMEIMEIKPQELSAENLKKQYKKLVKKYHPDLHQDDKQAAEEKFKQLTNAYQVLMRRF | -0.0526 |
| HMNTYVLPDALKSQLSVEDTGMLTKQLQALPETLAEGVLDSLSQMLSKNTLQNPVGWMLAVMKRAREGNFN | -0.282 |
| HMDLDPNKPAIPIAYPRVLLNIMAEKGFSRTEVLAGSGLADSVFDKPDHRITPAQFLFILMNSFYLS | -0.631 |
| HMREYEKAVDYVRRMISSGSLNVGDRLPTERELSLELDISRNSTREAMRMLENMGIIVSRHGSGNYISGN | -0.222 |
| HMLPVQGEEVAPGLYKFDFPFLADKRVWEKTINAFKAEHPELKVNYIYTGPDELNSKKKTHVLVYVFTES | -0.122 |
| HMELEIPGELIEAVRRLRDERQRMRLAGELAARQIQMHPERYTEASIDPVQTWDELRARILALA | -0.582 |
| HMPESFSEMQKRTGVGEFSDDALSAKYVDSIDADVMSLDEYIMKVRGISLDDLEAERALRAR | -0.884 |
| HMAADWTAIKLAYVNGGMSMRELAQRFHVGAAGLMKRAAKEGWEAERQQNSAKVSNAAQMLIN | 0.125 |
| HMDDGARQLVDQLNRLIANPAVSARIIHGYLILEGRVESEWEKTRTLLLAQVAGLPVIDLITVS | -2.12 |
| HMKFINISIDKSGNLFINKKSIKFQDLKYNVVNLVDESKNLVVLNADENISHGYVISVLDVLRSIDGLKLA | -0.802 |
| HMTKSTSMDLGGFMIVEGSETVRLGGQILQKDVDYTIDYFSGKINFISEEALNPGAEISVSYEENQ | -1.44 |
| HMLPPHMEVRAIMILDKRPMALMNIEGEGDGLIVSPGYRFGDGRGRVVSITQTKVVVLWAGTSMEL | -0.383 |
| HMKNIINFIVKEDDNNKRVDMILANHDKSLSRTRVKNLILDSKLKINERIVQDPSIKTKLNDKIELEIVEP | 0.251 |
| HMPVGSIGERLKALRLKAGLTQEEVGQHVHISKQTLYKYENGIVTNIPADKIELLATIYSVTPAYIMGWA | -0.118 |
| HMKMNFNEEEQKLLSEANVLVETNKTYTDDEVKGFSNKIVEHIMTFSKTDIPKVKSKFDPILFKI | -0.745 |
| HMKNLTERQQQIIALISGNPLITRAEIASAIGFSVKTIERELSILSEIVSYVGSKKGGHWEIQT | -0.49 |
| HMSRLLTTRQREVFEVATREGFWDVPRRINLSELAKVLGVAKSTLSSQLQRIESAVFHAFTDEIRRQS | 0.313 |
| HMKIEEIAYSTFISMLDKGEVSKVELKDNLIYIETKADDKTIYTTGRMEDPDLTNRLIEAGVDFTEIE | -0.73 |
| HMDISKTLGKNPLLIIDNIEYRGKTLDEITAMTGVKRFENIDIYGSEEAMKTYGEKAKDGVIIAYTT | -0.62 |

| Sequence | soluble fraction (log2) |
| --- | --- |
| HMFEEPYLATYPVLIDPKLAFNVLDTMLEGLEVKMDQDEETGAISVLAPASIHTKITEYLDALSKQ | -1.74 |
| HMPTPASGSSGYINATNVNFRTGPATSYKSISKLAKNTAVTILGTSGNWYKVTVGSLGKNGYVFATYVTVS | -0.332 |
| HMGLNNVSDILRLDFNSFKKKFDKLPSGYKNSVVEQAALMIKSGELDSIKIKDYIEKSMGIELDI | -0.0393 |
| HMSVDIWTGAQTGNIEAVKQHLADGVDVNSKSDIGRTALDVAIAFKQPLITDLLRKHGGKTRDELKAAE | -0.397 |
| HMNSHKIIDRLNQMITEKDLSEEMPAITEAFKNNERSAEDLKKYVAENLSKKLNAEEREKFVSLILQYRN | -0.338 |
| HMSQDTLIENGKVFLIHKVVAGQTLYGLSKAYNITIEDIIKYNPQAENGIKIGEDIKIFLKEE | -1.1 |
| HMKEQLLLGFKVRSLRGIDLGFVKFIEGSAFQSFLKTDLTIIPNVPNYVKKIDNVKKIILVDWESD | -1.54 |
| HMDPKWSHVRRLLDDENPIVRKALTEELIRSPEEGLAFLEQVIREPDHLLAKHAHNLLSELGWV | 0.0459 |
| HMPMTRILFLPDDRTILQFDSAEPAEDLVSAVNAGRWLPPEPYRSGFGLGLPENRLRASRQGALVVVMLS | -1.19 |
| HMNKTVKIPNVSNLSREDAESVLKENGISVNSEVKQIESDTIEKGKVVKTDPSIGTSVKKGRSITIYVSSG | 0.134 |
| HMRDYKTHLQEVLQSKGEVNIWYKLIDEKGPDHNKKFVMQVGIDSKILGFGEGKSKKEAEQVAARKALDNI | -0.317 |
| HMEKEKIKEALIGYFEAEPEEKFTVQELADKLKMNKAGQFNFVVQAVAQLEHDKVITLDDEGNFSLVRHE | -0.967 |
| HMALDLNEDEKLLVELIEKAGGTAGLGELKEASGLSGKKWDKTTKNLSKEGLIKVEKNESGLWVHLT | -0.423 |
| HMEIGELITLYRKQAGLTIDELSEKANVPKGTLNKIIGGITKAPTLETMRSIAYALGKKLADFDN | 0.107 |
| HMAPEPFILSVDADGKYYIDDLEKTKQEILIYATALYQEKPTTDFLVRGDKSAAYNDVLQAMVVLKE | 0.171 |
| HMGAARRFEMSEGGSQKFWEVAVEGPALTVRFGKLGTAGTTQTKTLASAEAAAKEADKLVREKTKKGYAP | -0.596 |
| HMTSMTHLGRHPDSEISLDDISVSRRHAEIERQGHEYVLRDSGSLNGTYVNQQRVDSVVLQQGDEIL | -0.277 |
| HMYDPVNEIGRVLKKIRQERSLTLDNVAEITGVSKTMLGQIERGVSVPTISVLWKIAKGLQVSLSTLLNE | 0.36 |
| HMDPEARRRAILNAAIDVIVEKGAAALTHRAVAARAGVSLGSTTKYFSSIEDLRENAMDALVREMD | -0.756 |
| HMLDLPEISARIMEVFETKDRATISELSKLTGTNINTIKKHLSSLVENNYLIKHGKTRGAWYTKST | -0.271 |
| HMADRVFGHIPGVAVGSIFPDRRSLSQTGVHRPTQAGISGNKTDGADSIVVSGGYRDDRDYGDLIIYTG | -0.746 |
| HMNEDTEDIKNINSLVNKLTENNFDIIRDSIVKLINKEHLIPYIIETIIEKSILHHRYVHLYVSILKE | -0.119 |
| HMSNGYVTAKTTVNVRKSASESGERLGVIYQGDKLELVMNQADGWTKVKYKGQTAYVKSEFM | 0.161 |
| HMRPLTPLEKLTPDADGKYYHIVQSGETLSWIAKLYETTAEKLQAWNNLFSSDIFPNQKLLLQVTPP | -0.123 |
| HMAEPEALLAMAQRILGEEVAQSLFQGAAREQGKEGYLPDPTPAFLDALEARLSGSVGAATAHAMISQLVG | -0.473 |
| HMEASVNAPMPGKIVSVSVSEGQQVNAGDVLLILEAMKMQNEITADAAGTVKAINVNAGQSVKNGDSLVIL | -0.586 |

| Sequence | soluble fraction (log2) |
| --- | --- |
| HMETLKINTHLGTLNLKKRGKKGTWQINIYFKNIEGDNHYRQSTGTNQLELAKAKAMNMITTEYSNRLAGI | -0.259 |
| HMPVVKIPFILTEGPSSITKVIEIDADEILELKDVFQEDDKLWSINQIEMNDGRYVKHSDASLIVRASALR | -0.183 |
| HMSEGEMSQWIIAQAKQQGGGFQPDAARLLGSYVGNNTLRARQEIDKLLTYVGPSRVVTPEDVVLLTA | -0.0309 |
| HMSKSKSEIDKDPHFWSSLFQRIGEGESLRKIAKDSKIPKSTLWAWIRNDPQLALRYSEAQQ | 0.00982 |
| HMRQVFPNPSSSQIKLASSRIGQAFSILDQQGRVVLSGKVSEEAVIALENLAKGIYVLKIGSWSETILK | 0.00122 |
| HMSGILINGELYKPGEQMSLKQRLSIQARIQMQGEDTVKPEMLKDFYNSGGPLSKEESSEYMKSQN | -0.321 |
| HMGNEVMYRQDLSEQELLSFIKKYTGQDEVTHIVVGAPKQRDNTPSPVETKITPFVVQLKAQFPDVNVV | -0.217 |
| HMLEAMDSDEAAKVIEQIVNERADFVRSKGMGAIGPLMGPVMGALRGKVDGKQANELLTAAIKKLL | 0.177 |
| HMYRWSEEIFEKLRSDIMAALDLSREQNDEEIYRFIETEVEEYSQNNLLTLKEREQLEHLLFNSL | -1.12 |
| HMLDPKVFVGKAGINEGIAKLLLQAFDKADLVKVRFTAERDVMETQMQELARLTGSEVIGNVGRTATF | 0.168 |
| HMNEDYSSMVGKTGFALTILRPAGKIMIEEEVFDAVAINGYISKGQEVEVVRYENAQLYVKVK | -0.228 |
| HMQDVWEPFLAKGYVFADGMLTKLIHKRGDVYKTQEIGSDKIIYVIKDGDTFAHGKTVKAAMLDLAFKKS | -0.392 |
| HMPALPGNELLRNLMLEHGLKQVDLAEIGSQGVVSEILSGKRRINRRHADLLARRFSLPAELFSR | -0.0865 |
| HMGAQKITIPDFSNQEATQVYAELKNMGLEYTESRMNHPSIASGYVIKTEPTKGSEVKAGTTVTVYVSLG | -0.128 |
| HMEAISIYPNPTDNELHLSTSVQEVRIYNMYGIEVTRAANTDRLAVSHLPKGVYLVHADGAVLKMIK | -1.29 |
| HMENAEALLKKLSGVLSDYEYKMLMLYADGKTPRRIAQETGQSAKSVSNALFRARTKLKELYEDQ | -0.455 |
| HMHSIFPVIRSTSFPTKSNDGELFITSDHTAETRIYYALDLGNTYRLIDQKVMNEINLTESLVKETARF | -1.63 |
| HMDSLIEYENERSLRRLINENLSDYERTVWWLYYAGADAAHIAEQTGRSKRSAENAITRVRRKLRALITQS | -0.188 |
| HMDLQHQLTPRLKRLRLSGILETLEVRNQQAIAEKWSYVEFLTRLAEDEVERRDHKQLTLRLR | -0.564 |
| HMKTLNKRQQDIINLAREEGFVTVEHLSEYFKVTQQTIRRDLGYLSENLYLARTYGGAFFQS | -0.535 |
| HMGTESFGARIRKIREARDWTPAALAEATGQTPEFVARVERDEVAPPVAFLLRLAAALGVDPSTF | -0.672 |
| HMVSAEQNTLEFIKENVKEDVIEDDIEFYKSLLEDWSVEVDNSSKLLDPGNNNSLLAVIAYSIENEL | -0.414 |
| HMRELPKRPEIRYAAGDRVFHKAFGNGLVKQVAQTAGGARVTVDFGEGKGVKTFAGDAPMIKI | 0.326 |
| HMEPQLVKSFDVQTELTYDQFLSKYPESHTLGRLLVQPEPIPFEPYKNIPGITPEKLLALHAKHLEAR | -0.169 |
